± gives the uncertainty stated by the source.

A short description of the series: self-splicing fitness, log relative to wild type (ln ratio); higher = more splicing; Tetrahymena group I intron in knt gene, E. coli kanamycin selection, DiMSum; sequences stand for … in CUCUCU…GGAGGGAAAAGUUAUCAGGCAUGCACCUGGUAGCUAGUCUUUAAACCAAUAGAUUGCAUCGGUUUAAAAGGCAAGACCGUCAAAUUGCGGGAAAGGGGUCAACAGCCGUUCAGUACCAAGUCUCAGGGGAAACUUUGAGAUGGCCUUGCAAAGGGUAUGGUAAUAAGCUGACGGACAUGGUCCUAACCACGCAGCCAAGUCCUAAGUCAACAGAUCUUCUGUUGAUAUGGAUGCAGUUCACAGACUAAAUGUCGGUCGGGGAAGAUGUAUUCUUCUCAUAAGAUAUAGUCGGACCUCUCCUUAAUGGGAGCUAGCGGAUGAAGUGAUGCAACACUGGAGCCGCUGGGAACUAAUUUGUAUGCGAAAGUAUAUUGAUUAGUUUUGGAGUACUCGUGGUCG
A digest of the protocol:
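Library with all eight P1ex-region intron nucleotides randomised, intron inside the knt kanamycin-resistance gene on pET-22b(+), in E. coli BL21(DE3). Cells grew overnight at 37°C or 30°C on LB agar with or without 25 μg/mL kanamycin (plus 100 μg/mL carbenicillin, 50 μM IPTG, 0.2% rhamnose), in six replicate transformations. Pooled colonies were amplicon-sequenced on Illumina HiSeq 2500. DiMSum fitness is the error-weighted combination of wild-type-normalised replicate fold changes, kanamycin versus none.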

Consider AGCGAGCAAUAUUACGGAAU, for which the “self-splicing fitness (ln)” value reads like this: (30 °C) -2.56 ± 0.26; (37 °C) -2.66 ± 0.38.

For ACUAAGCAAUAUUACGGCGC, the “self-splicing fitness (ln)” value runs as follows: (30 °C) -0.144 ± 0.099; (37 °C) -0.477 ± 0.096.

As to AUACAGCAAUAUUACGGCUC, the “self-splicing fitness (ln)” value is -0.178 ± 0.075 (30 °C) and 0.157 ± 0.1 (37 °C).

As to GUUUAGCAAUAUUACGGAGA, the “self-splicing fitness (ln)” value (37 °C) was -2.24 ± 0.46.

Take AUUUAGCAAUAUUACGGUUU: the “self-splicing fitness (ln)” value (30 °C) is -1.02 ± 0.096 and the “self-splicing fitness (ln)” value (37 °C) was -0.0857 ± 0.12.

Regarding GGUCAGCAAUAUUACGGCAC, the “self-splicing fitness (ln)” value is, setting by setting: (30 °C) -0.775 ± 0.13; (37 °C) 0.566 ± 0.16.

Regarding UUGAAGCAAUAUUACGCAUU, the “self-splicing fitness (ln)” value is -3.34 ± 0.23 (30 °C) and -3.18 ± 0.25 (37 °C).

As to CUACAGCAAUAUUACGCGAG, the “self-splicing fitness (ln)” value is -2.9 ± 0.098 (30 °C) and -1.74 ± 0.1 (37 °C).

In the case of AGUUAGCAAUAUUACGUGAA, the “self-splicing fitness (ln)” value (30 °C) was -2.78 ± 0.15 and the “self-splicing fitness (ln)” value (37 °C) was -2.31 ± 0.2.

For the sequence UGCAAGCAAUAUUACGUACG, the “self-splicing fitness (ln)” value is -0.89 ± 0.12 (30 °C) and -0.478 ± 0.1 (37 °C).

As for AAAUAGCAAUAUUACGUGAC, the “self-splicing fitness (ln)” value (30 °C) is -1.53 ± 0.2.

As to CGACAGCAAUAUUACGCGAU, the “self-splicing fitness (ln)” value was -2.8 ± 0.22 (30 °C) and -2.46 ± 0.28 (37 °C).

Turning to GCAGAGCAAUAUUACGGGGC, the “self-splicing fitness (ln)” value (30 °C) was -3.05 ± 0.36.

As for CAUGAGCAAUAUUACGGUCC, the “self-splicing fitness (ln)” value (30 °C) was -3.81 ± 0.37.

AGACAGCAAUAUUACGUUAG: the “self-splicing fitness (ln)” value is, setting by setting: (30 °C) -3.69 ± 0.21; (37 °C) -2.14 ± 0.15.

In the case of UUAGAGCAAUAUUACGCGGU, the “self-splicing fitness (ln)” value reads like this: (30 °C) -2.71 ± 0.25; (37 °C) -2.81 ± 0.48.

On to UCCAAGCAAUAUUACGGCUC, for which the “self-splicing fitness (ln)” value (30 °C) was -3.84 ± 0.37.

As to AUUGAGCAAUAUUACGGUCA, the “self-splicing fitness (ln)” value (30 °C) was -2.13 ± 0.19 and the “self-splicing fitness (ln)” value (37 °C) is -0.756 ± 0.13.

For the sequence ACGGAGCAAUAUUACGCUGG, the “self-splicing fitness (ln)” value is, setting by setting: (30 °C) -3.77 ± 0.29; (37 °C) -1.2 ± 0.18.

AUGGAGCAAUAUUACGCUCG: the “self-splicing fitness (ln)” value runs as follows: (30 °C) -1.58 ± 0.14; (37 °C) -0.952 ± 0.18.

ACACAGCAAUAUUACGAUUG: the “self-splicing fitness (ln)” value is, setting by setting: (30 °C) -2.22 ± 0.084; (37 °C) -0.711 ± 0.09.

In the case of UAGAAGCAAUAUUACGAGAG, the “self-splicing fitness (ln)” value runs as follows: (30 °C) -3.63 ± 0.28; (37 °C) -1.46 ± 0.34.

On to GAUUAGCAAUAUUACGUCUG, for which the “self-splicing fitness (ln)” value runs as follows: (30 °C) -2.47 ± 0.23; (37 °C) -1.19 ± 0.16.

For the sequence UCUCAGCAAUAUUACGUCUU, the “self-splicing fitness (ln)” value reads like this: (30 °C) -3.25 ± 0.17; (37 °C) -2.83 ± 0.15.

For GGUAAGCAAUAUUACGAACC, the “self-splicing fitness (ln)” value (37 °C) was -1.64 ± 0.42.

On to AGACAGCAAUAUUACGUGGC, for which the “self-splicing fitness (ln)” value runs as follows: (30 °C) -3.01 ± 0.19; (37 °C) -2.12 ± 0.22.

With CGAAAGCAAUAUUACGCUGA, the “self-splicing fitness (ln)” value reads like this: (30 °C) -3.09 ± 0.22; (37 °C) -1.54 ± 0.19.

As for GGACAGCAAUAUUACGCGAU, the “self-splicing fitness (ln)” value (30 °C) was -2.52 ± 0.17 and the “self-splicing fitness (ln)” value (37 °C) is -2.52 ± 0.17.

Turning to GUGUAGCAAUAUUACGAAUU, the “self-splicing fitness (ln)” value is -2.33 ± 0.064 (30 °C) and -1.85 ± 0.097 (37 °C).

In the case of GCAUAGCAAUAUUACGAGCG, the “self-splicing fitness (ln)” value is -1.3 ± 0.077 (30 °C) and -1.05 ± 0.085 (37 °C).

As to GCAGAGCAAUAUUACGGUAU, the “self-splicing fitness (ln)” value (30 °C) was -3.23 ± 0.15.

For UGACAGCAAUAUUACGGGGU, the “self-splicing fitness (ln)” value is -4.41 ± 0.31 (30 °C) and -2.38 ± 0.23 (37 °C).

For AGAGAGCAAUAUUACGCGCG, where the note is “37 °C”, the “self-splicing fitness (ln)” value is -1.3 ± 0.48.

Take UUCGAGCAAUAUUACGCAAA: the “self-splicing fitness (ln)” value is, setting by setting: (30 °C) -0.773 ± 0.28; (37 °C) -1.92 ± 0.26.

Take UCCGAGCAAUAUUACGAGAC: the “self-splicing fitness (ln)” value runs as follows: (30 °C) -3.1 ± 0.32; (37 °C) -2.81 ± 0.4.

For CUCAAGCAAUAUUACGAACA, the “self-splicing fitness (ln)” value runs as follows: (30 °C) -3.45 ± 0.44; (37 °C) -0.994 ± 0.31.

As to UAAUAGCAAUAUUACGUCGA, the “self-splicing fitness (ln)” value runs as follows: (30 °C) -2.4 ± 0.17; (37 °C) -0.993 ± 0.16.

Regarding UUCCAGCAAUAUUACGUACG, the “self-splicing fitness (ln)” value was -0.796 ± 0.1 (30 °C) and -0.902 ± 0.16 (37 °C).

For UUCAAGCAAUAUUACGCUUG, the “self-splicing fitness (ln)” value was -2.15 ± 0.35 (30 °C) and -1.01 ± 0.26 (37 °C).

AUACAGCAAUAUUACGCGUA: the “self-splicing fitness (ln)” value is, setting by setting: (30 °C) -1.76 ± 0.11; (37 °C) -0.809 ± 0.097.

Regarding CGUCAGCAAUAUUACGCUCA, the “self-splicing fitness (ln)” value is, setting by setting: (30 °C) -1.1 ± 0.15; (37 °C) 0.0237 ± 0.12.

GCGGAGCAAUAUUACGGUCG: the “self-splicing fitness (ln)” value reads like this: (30 °C) -3.61 ± 0.26; (37 °C) -2.41 ± 0.21.

As to UGACAGCAAUAUUACGACUA, the “self-splicing fitness (ln)” value (30 °C) was -0.585 ± 0.087 and the “self-splicing fitness (ln)” value (37 °C) was 0.416 ± 0.1.

In the case of CGUUAGCAAUAUUACGGAAA, the “self-splicing fitness (ln)” value runs as follows: (30 °C) -1.93 ± 0.38; (37 °C) -2.11 ± 0.31.

As for CUCUAGCAAUAUUACGUCUA, the “self-splicing fitness (ln)” value by setting is: (30 °C) -2.31 ± 0.25; (37 °C) -2.88 ± 0.24.

On to AGCGAGCAAUAUUACGUAUG, for which the “self-splicing fitness (ln)” value runs as follows: (30 °C) -3.68 ± 0.35; (37 °C) -3.3 ± 0.32.

On to CCAAAGCAAUAUUACGCCAG, for which the “self-splicing fitness (ln)” value is, setting by setting: (30 °C) -1.3 ± 0.1; (37 °C) -0.0837 ± 0.13.

With UAUAAGCAAUAUUACGUGUA, the “self-splicing fitness (ln)” value (30 °C) is -1.48 ± 0.1 and the “self-splicing fitness (ln)” value (37 °C) is -0.896 ± 0.1.

In the case of CAGGAGCAAUAUUACGAGCG, the “self-splicing fitness (ln)” value (30 °C) was -1.04 ± 0.13 and the “self-splicing fitness (ln)” value (37 °C) turned out to be 0.24 ± 0.11.

CGGGAGCAAUAUUACGGCGU: the “self-splicing fitness (ln)” value is, setting by setting: (30 °C) -3.6 ± 0.26; (37 °C) -1.73 ± 0.21.

Regarding ACACAGCAAUAUUACGUAAG, the “self-splicing fitness (ln)” value is, setting by setting: (30 °C) -2.06 ± 0.062; (37 °C) -0.736 ± 0.069.

In the case of ACCUAGCAAUAUUACGUUCU, the “self-splicing fitness (ln)” value (30 °C) was -1.08 ± 0.1 and the “self-splicing fitness (ln)” value (37 °C) is -0.757 ± 0.1.

Turning to GUACAGCAAUAUUACGGGAG, the “self-splicing fitness (ln)” value reads like this: (30 °C) -3.04 ± 0.21; (37 °C) -1.92 ± 0.15.

On to UUCGAGCAAUAUUACGUCCA, for which the “self-splicing fitness (ln)” value (30 °C) was -2.49 ± 0.31 and the “self-splicing fitness (ln)” value (37 °C) was -1.75 ± 0.44.

UAUCAGCAAUAUUACGGGGG: the “self-splicing fitness (ln)” value (30 °C) is -1.51 ± 0.092 and the “self-splicing fitness (ln)” value (37 °C) is -1.11 ± 0.14.

With CACCAGCAAUAUUACGAGUG, the “self-splicing fitness (ln)” value is -4.21 ± 0.18 (30 °C) and -2.76 ± 0.17 (37 °C).

With AAGUAGCAAUAUUACGCACA, the “self-splicing fitness (ln)” value is -0.522 ± 0.088 (30 °C) and -0.00649 ± 0.14 (37 °C).

In the case of UGCGAGCAAUAUUACGGGGC, the “self-splicing fitness (ln)” value (30 °C) is -3.09 ± 0.27.

With GGCAAGCAAUAUUACGGUAU, the “self-splicing fitness (ln)” value runs as follows: (30 °C) -1.17 ± 0.068; (37 °C) -0.119 ± 0.077.

Turning to GUCCAGCAAUAUUACGCUCC, the “self-splicing fitness (ln)” value reads like this: (30 °C) -0.889 ± 0.17; (37 °C) -0.563 ± 0.2.

In the case of GCAGAGCAAUAUUACGCACC, the “self-splicing fitness (ln)” value (30 °C) is -2.11 ± 0.45 and the “self-splicing fitness (ln)” value (37 °C) was -1.17 ± 0.48.

On to ACACAGCAAUAUUACGUUGG, for which the “self-splicing fitness (ln)” value (30 °C) was -3 ± 0.089 and the “self-splicing fitness (ln)” value (37 °C) is -1.2 ± 0.081.

In the case of CGUCAGCAAUAUUACGGCUC, the “self-splicing fitness (ln)” value (30 °C) was -1.43 ± 0.081 and the “self-splicing fitness (ln)” value (37 °C) came out at 0.225 ± 0.088.

These data come from the supplement of paper PMC7877785.
